# Values quoted from earlier work as cited in paper PMC4115291 (Nature communications, 2014).
# Test system: mice
substance,measurement,setting,value
β-Diguetoxin-Dc1a,"effect in mice, injected intracerebroventricularly (in words)",1.0 mg/kg intracerebroventricularly,no effect
same,"effect in mice, injected intraperitoneally (in words)",4.1 mg/kg intraperitoneally,no effect
